Residue numbers refer to the chain shown, from its start. Non-standard residues stand in square brackets, D forms with d. No end group written: not given here. pT = C[C@@H](OP(=O)(O)O)[C@H](N)C(=O)O; pS = N[C@@H](COP(=O)(O)O)C(=O)O
Key:
pS46 tau peptide = molecular target: T1, pS46 tau peptide; test: peptide ELISA
T1 construct: Partial peptide of tau coated on the ELISA plate
T1 peptide: GLKE[pS]P

pS199 tau peptide = molecular target: T2, pS199 tau peptide; test: peptide ELISA
T2 construct: Partial peptide of tau coated on the ELISA plate
T2 peptide: SGYS[pS]PGSPG

pS202 tau peptide = molecular target: T3, pS202 tau peptide; test: peptide ELISA
T3 construct: Partial peptide of tau coated on the ELISA plate
T3 peptide: SSPG[pS]SPGTPC

pT212 tau peptide = molecular target: T4, pT212 tau peptide; test: peptide ELISA
T4 construct: Partial peptide of tau coated on the ELISA plate
T4 peptide: SRSR[pT]PSLPTP

pS214 tau peptide = molecular target: T5, pS214 tau peptide; test: peptide ELISA
T5 peptide: SRSRTP[pS]LPTP

pT212/pS214 tau peptide = molecular target: T6, pT212/pS214 tau peptide; test: peptide ELISA
T6 peptide: SRSR[pT]P[pS]LPTP

pT217 tau peptide = molecular target: T7, pT217 tau peptide; test: peptide ELISA
T7 construct: Partial peptide of tau coated on the ELISA plate
T7 peptide: PSLP[pT]PPTR

pS400-BSA = molecular target: T8, pS400-BSA (phosphorylated as its name says (pS400); conjugated to BSA); test: peptide ELISA
T8 construct: BSA-conjugated tau peptide coated on the ELISA plate

pS412-BSA = molecular target: T9, pS412-BSA (phosphorylated as its name says (pS412); conjugated to BSA); test: peptide ELISA
T9 construct: BSA-conjugated tau peptide coated on the ELISA plate

[1] = molecular target: pSer413(Im) peptide (human); test: SPR (Biacore 3000), antibody captured by anti-mouse antibody, peptide as analyte, single cycle kinetics
Sequence of pSer413(Im) peptide (human) (peptide, as listed by the source): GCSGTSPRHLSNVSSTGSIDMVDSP

T8 sequence (P02769 25-607 limits assumed): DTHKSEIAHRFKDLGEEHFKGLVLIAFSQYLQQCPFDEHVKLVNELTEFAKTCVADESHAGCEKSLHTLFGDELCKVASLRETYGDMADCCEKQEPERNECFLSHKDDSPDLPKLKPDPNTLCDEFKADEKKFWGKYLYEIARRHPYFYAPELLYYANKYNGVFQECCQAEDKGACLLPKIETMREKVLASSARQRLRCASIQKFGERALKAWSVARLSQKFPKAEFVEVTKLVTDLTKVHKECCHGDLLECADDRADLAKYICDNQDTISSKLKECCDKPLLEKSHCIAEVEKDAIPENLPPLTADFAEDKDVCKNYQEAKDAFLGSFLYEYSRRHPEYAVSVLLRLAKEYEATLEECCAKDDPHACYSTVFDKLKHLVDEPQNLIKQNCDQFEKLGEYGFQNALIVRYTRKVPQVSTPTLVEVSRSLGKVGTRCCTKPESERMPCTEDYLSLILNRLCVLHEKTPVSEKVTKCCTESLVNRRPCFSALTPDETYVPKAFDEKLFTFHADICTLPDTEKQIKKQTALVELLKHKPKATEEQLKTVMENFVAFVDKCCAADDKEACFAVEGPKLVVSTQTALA
T9 sequence (P02769 25-607 limits assumed): as above

B1: Ta1505 (antibody, V domains shown)
VH: EVQLVESGGGLVQPKGSLKLSCAASGFAFNSFALNWVRQAPGKSLEWVVHIRSKTNNYATFYADSVKDRFTVSRDDSQSMVYLQMNNLKTEDTGIYYCVRRGPRDSWFGYWGQGTLVTVSA
VL: DILMTQTPLSLPVSLGDQASISCRSSQNIVHSNGNTYLEWYLQKPGQSPKVLIYTVSNRFSGVPDRFSGSGSGTDFTLKISRVEAEDLGVYYCFQGSHLPLTFGGGTKL
notes: also called Ta1505-2
B1: no binding (tested: 1 µg/mL) (pS46 tau peptide); no binding (tested: 1 µg/mL) (pS199 tau peptide); no binding (tested: 1 µg/mL) (pS202 tau peptide). B1: no binding (tested: 1 µg/mL) (pT212 tau peptide); no binding (tested: 1 µg/mL) (pS214 tau peptide); no binding (tested: 1 µg/mL) (pT212/pS214 tau peptide). B1: no binding (tested: 1 µg/mL) (pT217 tau peptide); no binding (tested: 1 µg/mL) (pS400-BSA); no binding (tested: 1 µg/mL) (pS412-BSA). It also gave a Kd [1] of 3.87 nM, a koff [1] of 0.000499 s⁻¹ and a kon [1] of 129000 M⁻¹ s⁻¹.

B2: Ta1501 (antibody, V domains shown)
VH: B1 VH with Q3H, G10E, L34M, A40T, S44G, E46N, V49A, V72I, S79N, V81L
VL: B1 VL with I2V, Q18H
notes: also called Ta15 Series
B2: no binding (tested: 1 µg/mL) (pS46 tau peptide); no binding (tested: 1 µg/mL) (pS199 tau peptide); no binding (tested: 1 µg/mL) (pS202 tau peptide). B2: no binding (tested: 1 µg/mL) (pT212 tau peptide); no binding (tested: 1 µg/mL) (pS214 tau peptide); no binding (tested: 1 µg/mL) (pT212/pS214 tau peptide). B2: no binding (tested: 1 µg/mL) (pT217 tau peptide); no binding (tested: 1 µg/mL) (pS400-BSA); no binding (tested: 1 µg/mL) (pS412-BSA). It also gave a Kd [1] of 18.6 nM, a koff [1] of 0.00105 s⁻¹ and a kon [1] of 56400 M⁻¹ s⁻¹.

B3: Ta1502 (antibody, V domains shown)
VH: B1 VH with S79N
VL: B1 VL
notes: also called Ta15 Series
B3: no binding (tested: 1 µg/mL) (pS46 tau peptide); no binding (tested: 1 µg/mL) (pS199 tau peptide); no binding (tested: 1 µg/mL) (pS202 tau peptide). B3: no binding (tested: 1 µg/mL) (pT212 tau peptide); no binding (tested: 1 µg/mL) (pS214 tau peptide); no binding (tested: 1 µg/mL) (pT212/pS214 tau peptide). B3: no binding (tested: 1 µg/mL) (pT217 tau peptide); no binding (tested: 1 µg/mL) (pS400-BSA); no binding (tested: 1 µg/mL) (pS412-BSA). For the same binder, the Kd [1] was 4.2 nM, the koff [1] was 0.00047 s⁻¹ and the kon [1] was 112000 M⁻¹ s⁻¹.

B4: Ta1507 (antibody, V domains shown)
VH: B1 VH with V2I, N30S, E46D, V49A, T55A, N57H, A59V
VL: B1 VL with I2V, M4L
notes: also called Ta15 Series
B4: no binding (tested: 1 µg/mL) (pS46 tau peptide); no binding (tested: 1 µg/mL) (pS199 tau peptide); no binding (tested: 1 µg/mL) (pS202 tau peptide). B4: no binding (tested: 1 µg/mL) (pT212 tau peptide); no binding (tested: 1 µg/mL) (pS214 tau peptide); no binding (tested: 1 µg/mL) (pT212/pS214 tau peptide). B4: no binding (tested: 1 µg/mL) (pT217 tau peptide); no binding (tested: 1 µg/mL) (pS400-BSA); no binding (tested: 1 µg/mL) (pS412-BSA). It also gave a Kd [1] of 4.2 nM, a koff [1] of 0.000533 s⁻¹ and a kon [1] of 127000 M⁻¹ s⁻¹.

B5: Ta1506 (antibody, V domains shown)
VH: EVHLVESGGGLVQPKGSLKLSCAASGFAFNSFAMNWVRQAPGKALDWIAHIRSKTNNYVTFYADSVKGRFSISRDDSQSMVYLQMNNLQTEDTGIYYCVRRGPRDSWFGYWGQGTLVTVSA
VL: B1 VL with D1G, I2V, T7I
notes: also called Ta15 Series
B5: no binding (tested: 1 µg/mL) (pS46 tau peptide); no binding (tested: 1 µg/mL) (pS199 tau peptide); no binding (tested: 1 µg/mL) (pS202 tau peptide). B5: no binding (tested: 1 µg/mL) (pT212 tau peptide); no binding (tested: 1 µg/mL) (pS214 tau peptide); no binding (tested: 1 µg/mL) (pT212/pS214 tau peptide). B5: no binding (tested: 1 µg/mL) (pT217 tau peptide); no binding (tested: 1 µg/mL) (pS400-BSA); no binding (tested: 1 µg/mL) (pS412-BSA). For the same binder, the Kd [1] was 9.75 nM, the koff [1] was 0.00194 s⁻¹ and the kon [1] was 199000 M⁻¹ s⁻¹.

B6: Ta1508 (antibody, V domains shown)
VH: B5 VH with A44G
VL: B1 VL with D1V, I2V
notes: also called Ta15 Series
B6: no binding (tested: 1 µg/mL) (pS46 tau peptide); no binding (tested: 1 µg/mL) (pS199 tau peptide); no binding (tested: 1 µg/mL) (pS202 tau peptide). B6: no binding (tested: 1 µg/mL) (pT212 tau peptide); no binding (tested: 1 µg/mL) (pS214 tau peptide); no binding (tested: 1 µg/mL) (pT212/pS214 tau peptide). B6: no binding (tested: 1 µg/mL) (pT217 tau peptide); no binding (tested: 1 µg/mL) (pS400-BSA); no binding (tested: 1 µg/mL) (pS412-BSA). The Kd [1] was 6.76 nM, the koff [1] was 0.00098 s⁻¹ and the kon [1] was 145000 M⁻¹ s⁻¹.

B7: Ta1509 (antibody, V domains shown)
VH: B5 VH with H3Q, A44G, T55S, G68D, S71I, V81I, Q89K, T93S
VL: B1 VL with I2V, T7S, S32T
notes: also called Ta15 Series
B7: no binding (tested: 1 µg/mL) (pS46 tau peptide); no binding (tested: 1 µg/mL) (pS199 tau peptide); no binding (tested: 1 µg/mL) (pS202 tau peptide). B7: no binding (tested: 1 µg/mL) (pT212 tau peptide); no binding (tested: 1 µg/mL) (pS214 tau peptide); no binding (tested: 1 µg/mL) (pT212/pS214 tau peptide). B7: no binding (tested: 1 µg/mL) (pT217 tau peptide); no binding (tested: 1 µg/mL) (pS400-BSA); no binding (tested: 1 µg/mL) (pS412-BSA). It also gave a Kd [1] of 14.4 nM, a koff [1] of 0.00125 s⁻¹ and a kon [1] of 87100 M⁻¹ s⁻¹.

Reference: patent publication US20220340646A1 (OSAKA CITY UNIVERSITY, published 2022)
